How the values were obtained:
[1] = target: fusion protein hPD1-HSA composed of a PD1 extracellular domain sequence and a human serum albumin sequence (human); assay: ELISA, hPD1-HSA coated 200 ng/well, HRP anti-human IgG Fc
[2] = target: fusion protein hPD1-HSA composed of a PD1 extracellular domain sequence and a human serum albumin sequence (human); assay: competitive ELISA, hPD1-HSA coated; competitor bio-hPDL1-FC, HRP-Streptavidin

EC50 [1]: 0.181 nM
IC50 [2]: 1.72 nM
Substance: Keytruda ® (antibody)

From patent US20240092908A1
